Experimental findings from FireProtDB (doi:10.1042/bj2870481) are described below.

The conditions of the series: Aspergillus oryzae (strain ATCC 42149 / RIB 40), 25 °C, GdnHCl, Absorbance, Unknown, KCl 0.1 M, reversible: yes, whole UniProt chain shown.

B1: Guanyl-specific ribonuclease T1 wild type, P00651 (protein)
chain: MMYSKLLTLTTLLLPTALALPSLVERACDYTCGSNCYSSSDVSTAQAAGYQLHEDGETVGSNSYPHKYNNYEGFDFSVSSPYYEWPILSSGDVYSGGSPGADRVVFNENNQLAGVITHTGASGNNFVECT
With B1, for the setting “pH 1.3”, the denaturant m value stood at 2.03 kcal/mol/M, the “denaturant midpoint (higher = more stable)” value (“denaturant midpoint” below) is 0.93 M and the unfolding free energy came to 1.9 kcal/mol. Further, where the note is “pH 3”, the denaturant m value was determined as 2.91 kcal/mol/M, the “denaturant midpoint” value came to 1.94 M and the unfolding free energy is 5.66 kcal/mol. For the setting “pH 7”, the denaturant m value turned out to be 2.93 kcal/mol/M, the “denaturant midpoint” value came out at 2.97 M and the unfolding free energy was determined as 8.74 kcal/mol.
